Results from patent US6436691B1, “Chemical compounds” (Zeneca Limited, priority 1995, dated 2002).

Columns and labels:
[1] = HCPB activity of COS-7 cell supernatants against Hipp-Arg (5 h assay); type: biochemical; details: COS-7 cell supernatant 250 μl
Description: Measurements were carried out at 37° C. in 0.25 mM Tris HCl buffer, pH 7.5 using 1 cm path length cuvettes in a total volume of 1.0 ml using a Perkin Elmer Lambda 2 spectrophotometer. Km and Vmax values were calculated using the ENZFITTER software programme (Biosoft, Perkin Elmer). Kcat was calculated from Vmax by dividing by the enzyme concentration in the reaction mixture.
For expression in eukaryotic cells, vectors containing genes capable of expressing preHCPB and the prepro sequence were cotransfected into COS-7 cells. COS cells are an African green monkey kidney cell line, CV-1, transformed with an origin-defective SV40 virus and have been widely used for short-term transient expression of a variety of proteins because of their capacity to replicate circular plasmids containing an SV40 origin of replication to very high copy number. There are two widely available COS cell clones, COS-1 and COS-7. The basic methodology for transfection of COS cells is described by Bebbington in Methods: A Companion to Methods in Enzymology (1991) 2, p. 141. […] Cell supernatants (250 μl) were analysed for HCPB activity against Hipp-Arg (5 h assay) as described in Reference Example 3. […]

[2] = Conversion of Hipp-Asp by purified HCPB mutants, 30 minutes, HPLC (Example 17); type: biochemical; details: 0.5 mM substrate, 30 minutes at 37° C.
Procedure, shortened: (§1)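 Purified human CPB mutants were incubated with hippuryl-L-Arg, -Glu or -Asp for 30 min at 37 °C, then stopped with acidic aqueous methanol. Hippuric acid was quantified by HPLC (20% methanol/50 mM phosphate pH 6.5, 230 nm). Values are % substrate converted to hippuric acid in 30 min.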

[3] = Km and kcat of HCPB mutants with Hipp-Asp (Example 7); type: biochemical; details: Hipp-Asp 0.25-5.0 mM; pH 7.5; 5 h at 37° C.
Description: Hipp-Glu and Hipp-Asp were diluted in range 0.25-8.0 mM and 0.25-5.0 mM respectively in 0.025 M Tris-HCL buffer, pH 7.5. Where necessary substrate samples were adjusted to pH 7.5 with 1M NaOH.
Samples were incubated for 5 h at 37° C. Reactions were terminated by the addition of 500 μl methanol/distilled water (80/20) containing 0.2% TFA. The amount of hippuric acid produced was quantified by HPLC as described in Example 6.
Km and Vmax values were calculated using the ENZFITTER software programme (Biosoft, Perkin Elmer).

[4] = Conversion of Hipp-Arg by purified HCPB mutants, 30 minutes, HPLC (Example 17); type: biochemical; details: 0.5 mM substrate, 30 minutes at 37° C.
Procedure, shortened: as §1

[5] = Conversion of Hipp-Glu by purified HCPB mutants, 30 minutes, HPLC (Example 17); type: biochemical; details: 0.5 mM substrate, 30 minutes at 37° C.
Procedure, shortened: as §1

[6] = Conversion of glutamic acid prodrug to intermediate by mutant and native HCPB, HPLC assay (Example 8); type: biochemical; details: prodrug 0.25-5.0 mM
[7] = Km and kcat of HCPB mutants with Hipp-Glu (Example 7); type: biochemical; details: Hipp-Glu 0.25-8.0 mM; pH 7.5; 5 h at 37° C.
Procedure, shortened: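 Hipp-Glu (0.25-8.0 mM) or Hipp-Asp (0.25-5.0 mM) in 0.025 M Tris-HCl, pH 7.5, was incubated with the mutant enzymes for 5 h at 37° C. Reactions were quenched with methanol/water containing 0.2% TFA, and hippuric acid was quantified by HPLC. Km and Vmax were obtained by curve fitting.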

[8] = Conversion of Hipp-Asp to hippuric acid by mutant and native human CPB, HPLC assay (Example 6); type: biochemical; details: 5 hr at 37° C.; 4 μg enzyme; 0.5 mM substrate
Description: (§2) Purified mutants of human CPB (D253K and D253R; Examples 1-3) and native human CPB, produced as described in Reference Example 12, were assayed for their ability to convert either hippuryl-L-aspartic acid (Hipp-Asp—Reference Example 2), hippuryl-L-glutamic acid (Hipp-Glu—Reference Example 1) or hippuryl-L-arginine (Sigma Chemical Company—cat no. H6625) to hippuric acid using a HPLC based assay.
(§3) The reaction mixture (250 μl) contained 4 μg human CPB (native or mutant) and 0.5 mM Hipp-Asp or Hipp-Glu in 0.025 M Tris-HCL, pH 7.5. Samples were incubated for 5 hr at 37° C. The reactions were terminated by the addition of 250 μl of 80% methanol, 20% distilled water, 0.2% trifluoro acetic acid and the amount of hippuric acid generated was quantified by HPLC.
(§4) HPLC analysis was carried out using a Hewlett Packard 1090 Series 11 (with diode array) HPLC system. Samples (50 μl) were injected onto a Hichrom Hi-RPB column (25 cm) and separated using a mobile phase of 40% methanol, 60% distilled water, 0.1% trifluoro acetic acid at a flow rate of 1 ml/min. The amount of product (hippuric acid) produced was determined from calibration curves generated with known amounts of hippuric acid (Sigma-H6375). The results are shown in Table 1 and are expressed as the percentage conversion of substrate into product in 5 hr at 37° C. with 4 μg enzyme.

[9] = Conversion of Hipp-Asp by periplasmic shockate of HCPB mutants, 24 h (Example 18); type: biochemical; details: shockate concentration in reaction mixture 50 %; 24 h at 37° C.
Procedure, shortened: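 Crude E. coli periplasmic shockate of each HCPB mutant was incubated with substrate for 24 h at 37° C, as neat or diluted shockate (1 in 10 or 1 in 100 for [G251T,D253K]HCPB; 1 in 50 for other mutants). Hippuric acid formed was quantified by HPLC. Values are percent conversion of substrate to product in 24 h.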

[10] = Conversion of Hipp-Glu to hippuric acid by mutant and native human CPB, HPLC assay (Example 6); type: biochemical; details: 5 hr at 37° C.; 4 μg enzyme; 0.5 mM substrate
Description: as §2, §3, §4

[11] = Conversion of prodrug of Example 24 to drug of Example 25 by HCPB mutants, HPLC (Example 20); type: biochemical; details: enzyme 15 μg/ml; 0.5 mM prodrug of Example 24; 5 minutes at 37° C.
Procedure, shortened: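 Reactions stopped with MeCN plus 0.2% TFA, with [Q54R,D145A,D253K] and [G251T,D253K]HCPB mutants used at 0.75 μg per reaction. Drug formed from prodrug quantified by HPLC (70% MeCN, 30% water, 0.1% TFA; detection 260 nm) against drug calibration curves.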

[12] = Conversion of Hipp-Arg to hippuric acid by mutant and native human CPB, HPLC assay (Example 6); type: biochemical; details: 5 hr at 37° C.; 4 μg enzyme
Description: as §2, §3, §4

[13] = Conversion of Hipp-Arg by periplasmic shockate of HCPB mutants, 24 h (Example 18); type: biochemical; details: shockate concentration in reaction mixture 50 %; 24 h at 37° C.
Description: The activity of [G251T,D253K]HCPB was measured using the assay conditions described in Example 17 but using either 50 μl of a neat or 1 in 10 or 1 in 100 dilution of [G251T,D253K]HCPB crude E.coli periplasmic shockate (shockate) sample in place of purified enzyme. Samples were incubated for 24 h at 37° C. […] For other HCPB mutants, the reaction volume was 250 μl and contained 125 μl of neat shockate or 1 in 50 dilution of shockate. The shockate samples were prepared as described in Example 16. The amount of Hippuric acid produced in 24 h was quantified by HPLC as described in Example 17 and the results are shown in Table 6 and are expressed as the percentage conversion of substrate into product in 24 h at 37° C.

[14] = system: LoVo colorectal tumour cells
[15] = Conversion of Hipp-Glu by periplasmic shockate of HCPB mutants, 24 h (Example 18); type: biochemical; details: shockate concentration in reaction mixture 50 %; 24 h at 37° C.

B1: HCPB: mature HCPB in supernatant of COS-7 cells co-transfected with preHCPB and prepro sequence plasmids (protein, UniProt P15086 111-417, looked up)
Carboxypeptidase B: ATGHSYEKYNKWETIEAWTQQVATENPALISRSVIGTTFEGRAIYLLKVGKAGQNKPAIFMDCGFHAREWISPAFCQWFVREAVRTYGREIQVTELLDKLDFYVLPVLNIDGYIYTWTKSRFWRKTRSTHTGSSCIGTDPNRNFDAGWCEIGASRNPCDETYCGPAAESEKETKALADFIRNKLSSIKAYLTIHSYSQMMIYPYSYAYKLGENNAELNALAKATVKELASLHGTKYTYGPGATTIYPAAGGSDDWAYDQGIRYSFTFELRDTGRYGFLLPESQIRATCEETFLAIKYVASYVLEHLY
Hipp-Arg substrate hydrolysed ([1]; co-transfection with prepro sequence): 61%

B2: D253K HCPB: mature HCPB with aspartate 253 changed to lysine, C-terminal (His)6-c-myc tag (protein, UniProt P15086 111-417, looked up, variant D253K)
Carboxypeptidase B: ATGHSYEKYNKWETIEAWTQQVATENPALISRSVIGTTFEGRAIYLLKVGKAGQNKPAIFMDCGFHAREWISPAFCQWFVREAVRTYGREIQVTELLDKLDFYVLPVLNIDGYIYTWTKSRFWRKTRSTHTGSSCIGTDPNRNFDAGWCEIGASRNPCDETYCGPAAESEKETKALADFIRNKLSSIKAYLTIHSYSQMMIYPYSYAYKLGENNAELNALAKATVKELASLHGTKYTYGPGATTIYPAAGGSKDWAYDQGIRYSFTFELRDTGRYGFLLPESQIRATCEETFLAIKYVASYVLEHLY
modifications: (His)6-c-myc tag
Hipp-Asp (% conversion) ([2]; enzyme 2.5 μg/ml): 2.9% | Hipp-Asp (% conversion) ([2]; enzyme 25 μg/ml): 22% | Km [3]: 2.7 mM | kcat, Hipp-Asp [3]: 0.26 s⁻¹ | Hipp-Arg (% conversion) ([4]; enzyme 2.5 μg/ml): 0% | Hipp-Arg (% conversion) ([4]; enzyme 25 μg/ml): 0% | Hipp-Glu (% conversion) ([5]; enzyme 2.5 μg/ml): 14.6% | Hipp-Glu (% conversion) ([5]; enzyme 25 μg/ml): 79% | kcat, glutamic acid prodrug [6]: 0.016 s⁻¹ | Vmax, glutamic acid prodrug ([6]; enzyme 0.25 mg/ml): 0.000117 mM/s | Km [7]: 5.3 mM | kcat, Hipp-Glu [7]: 3.8 s⁻¹ | Hipp-Asp (% conversion to Hippuric acid) [8]: 78% | Hipp-Asp (% conversion) [9]: 2.0% | Hipp-Glu (% conversion to Hippuric acid) [10]: 91% | Prodrug Hydrolysis (%) [11]: 70.4% | drug concentration at end of reaction [11]: 0.352 mM | Hipp-Arg (% conversion to Hippuric acid) [12]: <2% | Hipp-Arg (% conversion) [13]: 0% | cytotoxicity of the glutamic acid prodrug with enzyme added ([14]; 100 μg enzyme added to assay wells containing glutamic acid prodrug): comparable to that of the active drug | toxicity of prodrug of Example 21 with enzyme added ([14]; 2.4 to 11.75 μg/ml enzyme added to prodrug 500 μM, FIG. 16): matched that seen with 200 μM of the active drug | Hipp-Glu (% conversion) [15]: 7.4%

B3: proHCPB: proHCPB expressed from COS-7 cells (plasmid pMF49), activated with trypsin (protein, UniProt P15086 16-417, looked up)
pro-form: HHGGEHFEGEKVFRVNVEDENHINIIRELASTTQIDFWKPDSVTQIKPHSTVDFRVKAEDTVTVENVLKQNELQYKVLISNLRNVVEAQFDSRVRATGHSYEKYNKWETIEAWTQQVATENPALISRSVIGTTFEGRAIYLLKVGKAGQNKPAIFMDCGFHAREWISPAFCQWFVREAVRTYGREIQVTELLDKLDFYVLPVLNIDGYIYTWTKSRFWRKTRSTHTGSSCIGTDPNRNFDAGWCEIGASRNPCDETYCGPAAESEKETKALADFIRNKLSSIKAYLTIHSYSQMMIYPYSYAYKLGENNAELNALAKATVKELASLHGTKYTYGPGATTIYPAAGGSDDWAYDQGIRYSFTFELRDTGRYGFLLPESQIRATCEETFLAIKYVASYVLEHLY
modifications: pro-form
hydrolysis of the Hipp-Arg substrate ([1]; after activation with trypsin 700 μg/ml): complete hydrolysis
